One experiment concerns the target T1, 6H–hTFIIEα D380A (human, UniProt P29083 1-439, D380A).
T1 sequence: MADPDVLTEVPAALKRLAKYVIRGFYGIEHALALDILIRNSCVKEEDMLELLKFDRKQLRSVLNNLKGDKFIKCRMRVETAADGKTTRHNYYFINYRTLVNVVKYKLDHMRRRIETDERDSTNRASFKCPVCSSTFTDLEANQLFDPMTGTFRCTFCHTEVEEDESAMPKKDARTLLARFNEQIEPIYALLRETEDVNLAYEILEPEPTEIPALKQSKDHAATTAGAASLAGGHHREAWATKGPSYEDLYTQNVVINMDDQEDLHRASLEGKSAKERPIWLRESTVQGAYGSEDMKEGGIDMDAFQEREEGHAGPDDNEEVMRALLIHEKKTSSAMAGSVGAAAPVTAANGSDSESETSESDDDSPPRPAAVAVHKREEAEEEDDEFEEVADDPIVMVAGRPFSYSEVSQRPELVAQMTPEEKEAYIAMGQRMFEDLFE
The experiment is described as follows: pull-down.

A further experiment has as its target T2, 6H–hTFIIEα V372D (human, UniProt P29083 1-439, V372D).
T2 sequence: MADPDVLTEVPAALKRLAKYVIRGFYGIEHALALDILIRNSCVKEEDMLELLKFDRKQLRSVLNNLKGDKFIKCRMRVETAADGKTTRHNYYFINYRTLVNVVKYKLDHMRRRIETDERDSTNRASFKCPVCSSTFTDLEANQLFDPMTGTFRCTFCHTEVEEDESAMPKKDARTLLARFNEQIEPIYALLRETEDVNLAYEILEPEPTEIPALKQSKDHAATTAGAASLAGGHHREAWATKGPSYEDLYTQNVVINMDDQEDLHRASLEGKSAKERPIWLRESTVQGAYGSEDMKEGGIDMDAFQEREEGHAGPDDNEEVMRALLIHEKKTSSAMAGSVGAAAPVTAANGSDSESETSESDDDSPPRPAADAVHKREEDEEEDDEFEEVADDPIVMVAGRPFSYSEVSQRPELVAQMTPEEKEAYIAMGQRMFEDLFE
Put plainly: pull-down.

B1: GST-tagged hTFIIEβ (natural protein)
chain: MDPSLLRERELFKKRALSTPVVEKRSASSESSSSSSKKKKTKVEHGGSSGSKQNSDHSNGSFNLKALSGSSGYKFGVLAKIVNYMKTRHQRGDTHPLTLDEILDETQHLDIGLKQKQWLMTEALVNNPKIEVIDGKYAFKPKYNVRDKKALLRLLDQHDQRGLGGILLEDIEEALPNSQKAVKALGDQILFVNRPDKKKILFFNDKSCQFSVDEEFQKLWRSVTVDSMDEEKIEEYLKRQGISSMQESGPKKVAPIQRRKKPASQKKRRFKTHNEHLAGVLKDYSDITSSK
Turning to B1, the binding result in the experiment with 6H–hTFIIEα D380A and in the experiment with 6H–hTFIIEα V372D was “binds” each time.

Source of the values: article PMC2275666 (The EMBO Journal, 2008).
